Data set [1] concerns cUNG (Atlantic cod uracil-DNA glycosylase). Kind of data set: Product inhibition of cUNG with free uracil. Format: biochemical, Atlantic cod (Gadus morhua). As to the method:
Different concentrations of uracil was added to the assay mixture and the assay performed as described in material and methods. Uracil-DNA glycosylase activity was measured in a final volume of 20 μl, containing 70 mM Tris/HCl, 10 mM NaCl, 1 mM EDTA, 100 μg/ml BSA and 230 ng nick-substrate or 71 ng PCR-substrate. The reaction mixture was incubated 10 min at 37° C., and terminated with the addition of 20 μl of ice cold single stranded calf thymus DNA (1 mg/ml) and 500 μl 10% (w/v) TCA. Samples were incubated on ice for 15 min, and centrifuged at 16,000 g for 10 min. Supernatants with acid soluble ^3H-uracil were analyzed using a liquid scintillation counter. Activity measurements using PCR-substrate were performed with 6.65×10^−4 U of purified cUNG. Various concentrations of uracil (0, 1, 2 and 5 mM) or Ugi-inhibitor (1.25×10^3 U to 2.00×10^2 U) were added to the assay mixtures (on ice). Activity was then measured as described under standard assay conditions.

Data set [2] is described as follows: Effect of temperature on stability (half-life of UNG activity). Format: physicochemical. As to the method:
Enzyme (1 U) were incubated at 50° C., 37° C., 25° C. and 4° C., and 5 μl aliquotes were transferred to the assay mixture after different time intervals, and standard assays were performed as described in material and methods. Half-lifes were determined to 0.5 min (50° C.), 20 min (37° C.), 60 min (25° C.) and 2 h (4° C.) for cUNG and 8 min (50° C.) 30 min (37° C.), 150 min (25° C.) and 2.6 h (4° C.) for rhUNG.
(§1) Assays were done in a volume of 20 μl as described in standard assay using the PCR generated substrate. The assay mixtures were as described in standard assay conditions and were adjusted to pH 8.0 for all temperatures. The temperature range used was 5° C. to 60° C. The activity was measured in a sequential manner with 15 min intervals, between each temperature. The enzymes used were diluted in standard dilution buffer (5 mM Tris/HCl, 10 mM NaCl, 1% (v/v) glycerol, pH 8.0) and placed on ice.
Temperature: UNG (0.01 U) was preincubated (in a total volume of 75 μl) in 10 mM Tris/HCl, 50 mM NaCl, 1 mM EDTA, 1% glycerol, pH 8.0 (adjusted at each temperature).

The nature of data set [3]: Effect of pH on stability (residual UNG activity). Format: physicochemical. Here is the method: In the different pH-buffer, 1 U of cUNG (Δ) or rhUNG (□) were incubated for 10 minutes at 37° C. Then 5 μl aliquotes were transfered to the assay mixture, and residual activity was measured using standard assay conditions as described in materials and methods. One hundred percent activity was measured directly from a sample diluted at pH 8.0 without any incubation step.
pH: UNG (0.01 U) was preincubated (in a total volume of 75 μl) for 10 min at 37° in buffers containing 10 mM buffer, 10 mM NaCl, 1 mM EDTA, 1% glycerol, with pH ranging from 9.5-6.5 with 0.5 pH unit intervals using diethanolamine/HCl (9.5-8.5), Tris/HCl (8.5-7.5), MOPS/NaOH (7.5-6.5) and MES/NaOH (6.5-5.5) as buffer components. Aliquots of 5 μl were transferred to the assay mixtures and residual activity was measured using standard assay conditions.

The test system of data set [4] is PCR generated uracil-containing DNA substrate. Description: Determination of temperature optimum / temperature profile. Format: biochemical. Here is the method:
Due to prolonged incubation of the enzyme sample on ice during the experiment, activity is corrected with respect to the stability of the enzyme, as described in material and methods.
Enzyme activity was measured as described in material and methods. The percent UNG activity is set relative to the highest value for cUNG (45° C.) and rhUNG (50° C.) respectively. Due to prolonged incubation of the enzyme samples on ice during the experiment, activity is corrected with respect to the stability of the enzymes, as described in material and methods.
as §1

Data set [5] has the same test system. The conditions noted are these: literature value (64); cited from earlier work.
The conditions of data set [6]: cited from earlier work; for half-life: literature (45).
For data set [7], the system named is cUNG (Atlantic cod uracil-DNA glycosylase). Kind of data set: Inhibition of cUNG with uracil-DNA glycosylase inhibitor (Ugi). Format: biochemical, Atlantic cod (Gadus morhua). The conditions noted are these: 6.65×10^−4 U cUNG, 1.25×10^3 U to 2.00×10^2 U Ugi. Here is the method:
6.65×10^−4 U of cUNG was incubated with 1.25×10^3 U to 2.00×10^2 U of Ugi using standard assay conditions, as described in material and methods. One Unit of Ugi inhibit one Unit of UNG-activity, where the UNG-activty is defined as releasing 60 pmol of uracil per min at 37° C.
Uracil-DNA glycosylase activity was measured in a final volume of 20 μl, containing 70 mM Tris/HCl, 10 mM NaCl, 1 mM EDTA, 100 μg/ml BSA and 230 ng nick-substrate or 71 ng PCR-substrate. The reaction mixture was incubated 10 min at 37° C., and terminated with the addition of 20 μl of ice cold single stranded calf thymus DNA (1 mg/ml) and 500 μl 10% (w/v) TCA. Samples were incubated on ice for 15 min, and centrifuged at 16,000 g for 10 min. Supernatants with acid soluble ^3H-uracil were analyzed using a liquid scintillation counter.
Activity measurements using PCR-substrate were performed with 6.65×10^−4 U of purified cUNG. Various concentrations of uracil (0, 1, 2 and 5 mM) or Ugi-inhibitor (1.25×10^3 U to 2.00×10^2 U) were added to the assay mixtures (on ice). Activity was then measured as described under standard assay conditions.
Target sequence in this assay (as listed by the source): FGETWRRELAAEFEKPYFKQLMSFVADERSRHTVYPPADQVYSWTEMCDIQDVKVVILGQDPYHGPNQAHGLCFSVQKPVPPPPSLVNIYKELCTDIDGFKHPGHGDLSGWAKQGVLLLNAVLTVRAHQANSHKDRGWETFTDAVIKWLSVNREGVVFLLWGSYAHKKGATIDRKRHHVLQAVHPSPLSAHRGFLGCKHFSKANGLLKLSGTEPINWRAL

Usually half-life stands for the time in which the quantity being followed falls by half. Usually residual activity stands for the share of the control activity or signal that is left under treatment.

Like-named read-outs stand apart in the source and are kept apart here.

`O=c1cc[nH]c(=O)[nH]1` [uracil]: the “inhibition of cUNG activity” value in data set [1] (1 mM uracil in the assay mixture) was “more than 50%”; in data set [1] (5 mM free uracil in the assay mixture), 78%.

B1: rhUNG: purified recombinant mesophilic human UNG (UNGΔ84) provided by Dr. Krokan (protein, UniProt P13051 85-304, looked up, fragment)
chain: LAARNVPVGFGESWKKHLSGEFGKPYFIKLMGFVAEERKHYTVYPPPHQVFTWTQMCDIKDVKVVILGQDPYHGPNQAHGLCFSVQRPVPPPPSLENIYKELSTDIEDFVHPGHGDLSGWAKQGVLLLNAVLTVRAHQANSHKERGWEQFTDAVVSWLNQNSNGLVFLLWGSYAQKKGSAIDRKRHHVLQTAHPSPLSVYRGFFGCRHFSKTNELLQKSG
Turning to B1, the half-life in data set [2] (4° C., pH 8.0) is 156 min; in data set [2] (25° C., pH 8.0), 150 min; in data set [2] (37° C., pH 8.0), 30 min; in data set [2] (50° C., pH 8.0), 8 min; in data set [2] (enzyme in standard dilution buffer on ice), 156 min. Also, in data set [3] (pH 10.0, 10 min at 37° C.), the residual activity was found to be 66%. Besides, the “pH range in which most stable” value in data set [3] (preincubated 10 min at 37° C.) was 7.0-9.5. Besides, in data set [4] (FIG. 6, 5-60° C.), the “temperature of highest activity value in temperature profile” value amounted to 50 °C. In data set [4] (temperatures higher than 45° C.), the “relative activity compared with cUNG” value is reported as “higher relative activity”. The temperature optimum in data set [5] was 45 °C.

B2: E. coli UNG: commercially available UNG (or UDG) from Escherichia coli used in carry-over prevention (protein, UniProt P12295 2-229, looked up)
Uracil-DNA glycosylase: ANELTWHDVLAEEKQQPYFLNTLQTVASERQSGVTIYPPQKDVFNAFRFTELGDVKVVILGQDPYHGPGQAHGLAFSVRPGIAIPPSLLNMYKELENTIPGFTRPNHGYLESWARQGVLLLNTVLTVRAGQAHSHASLGWETFTDKVISLINQHREGVVFLLWGSHAQKKGAIIDKQRHHVLKAPHPSPLSAHRGFFGCNHFVLANQWLEQRGETPIDWMPVLPAESE
In the case of B2, the half-life is 27 min in data set [6] (40° C.) and 8 min in data set [6] (45° C.). Also, the “inactivation by heat treatment / reactivation” value in data set [6] (literature (60), (45)) is “not completely inactivated”.

B3: Ugi: Bacillus subtilis bacteriophage PBS2 UDG-inhibitor, obtained from New England Biolabs (protein)
chain: MTNLSDIIEKETGKQLVIQESILMLPEEVEEVIGNKPESDILVHTAYDESTDENVMLLTSDAPEYKPWALVIQDSNGENKIKML
B3: in data set [7], the “effect of Ugi on cUNG activity” value is reported as “clearly inhibited”.

Source of the values: patent US7037703B2, “COD URACIL-DNA GLYCOSYLASE, GENE CODING THEREFORE, RECOMBINANT DNA CONTAINING SAID GENE OR OPERATIVE PARTS THEREOF, A METHOD FOR PREPARING SAID PROTEIN AND THE USE OF SAID PROTEIN OR SAID OPERATIVE PARTS THEREOF IN MONITORING OR CONTROLLING PCR” (Biotec Pharmacon ASA, priority 2000, dated 2006).
